Assays:
[1] = Encapsulation rate of lipid nanoparticles (Ribogreen); format: physicochemical
Method: The encapsulation rate of the lipid nanoparticles was calculated by measuring the amount of encapsulated nucleic acid (the amount of ssODN in the case of RNP-ssODN) using an RNA intercalator Ribogreen (manufactured by Life Technologies).

[2] = Average particle diameter, PdI and zeta potential of lipid nanoparticles (dynamic light scattering); format: physicochemical
Method: The mean particle diameter (number average value), ζ-mean particle diameter, and polydispersity index (PdI) of the lipid nanoparticles in PBS(−) (pH 7.4), as well as the zeta potential in 10 mM HEPES buffer (pH 7.4), were measured using an analyzing device, Zetasizer Nano ZS ZEN3600 (Malvern), which utilizes dynamic light scattering.

BALB/c mice = experiment: Measurement of Fluc activity in tissues after iv Fluc mRNA-loaded lipid nanoparticles; format: in vivo, mouse; conditions: Example 1, FIG. 1; Fluc mRNA-loaded LNP 50/10/40/1.5; Balb/c mice iv 0.01 mg mRNA/kg, 6 hours
Method: First, lipid nanoparticles encapsulating Fluc mRNA (Fluc mRNA-loaded lipid nanoparticles) were intravenously injected into BALB/c mice (female, 4 weeks old) at a dose of 0.01 mg mRNA/kg body weight. Six hours after intravenous injection, the mice were euthanized, and each tissue was collected, frozen in liquid nitrogen, and stored at −80° C. The tissues were homogenized in passive lysis buffer (Promega) using a bead cell disrupter (Micro Smash MS-100R, TOMY Seiko). Tissue debris was removed by centrifugation and the supernatant was collected. Fluc activity in the supernatant was measured using a luciferase assay system (E1500, Promega) according to the manufacturer's protocol. Luminescence was measured using a luminometer (Luminescencer-PSN, ATTO). The protein concentration was determined using a commercially available measurement kit (BCA Protein Assay Kit, Pierce). Fluc activity was expressed as relative light units (RLU) per mg of protein.

TTR gene [3] = experiment: Measurement of TTR-KO activity (serum TTR protein, ELISA); format: in vivo, mouse
In short: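 Female BALB/c mice (4 weeks) received Cas9/sgTTR-RNP-loaded lipid nanoparticles i.v. at the indicated doses. Serum TTR protein measured by ELISA one week later. TTR-KO activity expressed as serum TTR (%) relative to untreated mice set at 100%.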

[4] = pKa of lipid nanoparticles (TNS); conditions: apparent pKa of Fluc mRNA-loaded LNP; 50/10/40/1.5 mol%; Table 5
Method: The pKa of the lipid nanoparticles was measured using p-Toluenesulfonic acid (TNS). First, TNS (final concentration: 0.75 μM) and lipid nanoparticles (final concentration: 30 μM) were mixed in buffer solutions (200 mL) adjusted to various pH values (pH 3.5 to 9.5). The buffer solutions used were: 20 mM citrate buffer solution, 20 mM sodium phosphate buffer solution, or 20 mM Tris-HCl buffer solution containing 130 mM NaCl. The fluorescence intensity of the prepared mixture was measured using a spectrofluorometer (VarioskanLux, Thermo Fisher Scientific) at the setting of λex=321 nm and λem=447 nm. The highest and lowest measured values were taken as 100% and 0% charge rate, respectively, and the pH showing a 50% charge rate was calculated as the apparent pKa. The percentage of the contained cationically charged pH-sensitive cationic lipid was calculated using the Henderson-Hasselbalch equation.

dsDNA from the TTR locus = experiment: In vitro DNA cleavage activity; format: biochemical, mouse; conditions: n=3
Description: Genomic DNA was collected and purified from BALB/c mouse liver tissue using a commercially available nucleic acid extraction kit (NucleoSpin Tissue, MACHEREY-NAGEL) according to the manufacturer's protocol.
The dsDNA from the TTR locus was amplified by PCR (using KAPA HiFi HotStart DNA polymerase (KAPA Biosystems)) using the genomic DNA as a template and the primer set shown in Table 4, and purified using a commercially available nucleic acid purification kit (ISOSPIN PCR Product, Nippon Gene).
The ssODN (5 equivalents relative to […]) was added to Cas9/sgTTR-RNP to form a TTR-RNP-ssODN complex. […] The reaction solution was then heated at 65° C. for 5 minutes to inactivate Cas9-RNP, and the dsDNA was then subjected to electrophoresis on a 3% agarose gel at 100 V for 40 minutes. After electrophoresis, the gel was stained (GelRed, Biotium) and visualized using a fluorescent/visible light gel imaging system (Printgraph CMOS I, ATTO). Bands were quantified using image analysis software (ImageJ).
DNA cleavage was calculated using the following formula: in the formula, Int_full and Int_cleaved indicate the intensities derived from full length (uncleaved) and cleaved DNA, respectively.

TTR gene [5] = experiment: T7E1 assay on liver genomic DNA; format: in vivo, mouse; conditions: 2 mg RNP/kg iv two consecutive days, one week after final injection, CL4H6 LNP, n=3
Method: Lipid nanoparticles encapsulating TTR-RNP-ssODN complexes (TTR-RNP-ssODN-loaded lipid nanoparticles) were intravenously injected to BALB/c mice (female, 4 weeks old) at 2 mg RNP/kg body weight for two consecutive days. One week after the last injection, the mice were euthanized and liver tissues were harvested, flash frozen in liquid nitrogen, and stored at −80° C.
Genomic DNA was extracted and purified from the collected liver tissue using a commercially available nucleic acid extraction kit (NucleoSpin Tissue, MACHEREY-NAGEL) according to the manufacturer's protocol.
The T7E1 assay was performed using a commercially available genome editing detection kit (Alt-R®, Integrated DNA Technologies). The dsDNA treated with T7E1 was subjected to agarose gel electrophoresis in the same manner as in the above described <Measurement of In vitro DNA Cleavage Activity>, and the gel after electrophoresis was stained and the bands were quantified.

[6] = Evaluation of biodistribution (fluorescently labeled RNP-ssODN); format: in vivo, mouse; conditions: mice iv 2 mg RNP/kg, 1 hour; labeled TTR-RNP-ssODN in CL4H6 LNP (ssODN(−): free RNP, no LNP)
Method: For fluorescent labeling of lipid nanoparticles, the RNP-ssODN solution described above was mixed with a three-fold molar amount of a fluorescent molecule (DyLight 650 NHS ester) in DMSO and incubated for 30 min at ambient temperature in the dark. Unreacted fluorescent molecules were removed by ultrafiltration (Amicon Ultra-0.5, MWCO 3 kDa, Millipore).
Lipid nanoparticles encapsulating the obtained fluorescently labeled RNP-ssODN (fluorescently labeled RNP-ssODN-loaded lipid nanoparticles) were intravenously injected into BALB/c mice (female, 4 weeks old) at 2 mg RNP/kg body weight. One hour after intravenous injection, the mice were euthanized and various tissues, including blood, were collected. The collected blood was immediately diluted with 1% sodium dodecyl sulfate (SDS) solution. The collected tissues were immediately weighed and then homogenized in 1% sodium dodecyl sulfate (SDS) solution. The resulting homogenates were transferred to a black 96-well plate, and fluorescence was measured using a microplate reader (VarioskanLux, Thermo Fisher Scientific) at settings of λex=652 nm and λem=672 nm. Calibration curves were generated using fluorescently labeled RNP-ssODN-loaded lipid nanoparticles and blood or tissue homogenates similarly prepared from untreated mice. Biodistribution was expressed as the percentage of injected dose per tissue or blood (% injected dose).

[7] = Fluc mRNA-loaded LNP, cationic lipid/DSPC/cholesterol/PEG-DMG 50/10/40/1.5 mol%, Table 5
[8] = TTR-RNP-ssODN-loaded LNP (ssODN-TTR_3-40%), cationic lipid/DSPC/cholesterol/PEG-DMG 50/10/40/3.5 mol%, Table 8
[9] = TTR-RNP-ssODN-loaded LNP, sgTTR-G211, CL4H6/DSPC/cholesterol/PEG-DMG 50/10/40/3.5 mol%, Table 11
[10] = TTR-KO activity in mice, TTR-RNP-ssODN-loaded LNP CL4H6/DSPC/cholesterol/PEG-DMG 50/10/40/3.5 mol%, sgTTR-G211 (TTR_3) or sgTTR-G269 (TTR_4)

Molecule `CCCCCC(CCCCC)CC(=O)OCCCCCCC(O)(CCCCCCOC(=O)CC(CCCCC)CCCCC)CCCCN(CCC)CCC` [CL4F8-b-5, 7-(4-(dipropylamino)butyl)-7-hydroxytridecane-1,13-diylbis(3-pentyloctanoate)] has an Encapsulation rate [1, 7] of 91.0%, an Encapsulation rate [1, 8] of 60.2% and a Number-average particle diameter [2, 7] of 68.7 nm. It also gave a PdI [2, 7] of 0.185, a ζ-average [2, 7] of 106.3 nm and a ζ-potential [2, 7] of −5.16 mV. It also gave a Number-average particle diameter [2, 8] of 127.5 nm, a PdI [2, 8] of 0.128 and a ζ-average [2, 8] of 178.0 nm. The ζ-potential [2, 8] was −0.95 mV, the “Fluc activity (gene transfer ability) in liver and spleen” value (BALB/c mice) was “equal to or greater than that of CL4F6” and the “serum TTR activity / gene knockout versus CL4F6” value (TTR gene [3]; FIG. 5, TTR-RNP-ssODN-loaded LNP, mouse serum 7 days after administration) was “lower serum TTR activity and higher gene knockout”. For the same molecule, the pKa [4] was 6.25.

B1: ssODN-TTR_3-40%: ssODN pairing with sgTTR-G211, 40% matched; SEQ ID NO 7 (nucleic acid)
DNA: AAAAAAAAAAAAAAAAAAAAAAAAAAAAAAAAAAAAAAAAAAAAAAAAAAAAAAAAAAAAAAAGACGTGGAAAATTAAAAAAAAAAAAAAAAAAAAAAAAAAAAAAAAAAAAAAAAAAAAAAAAAAAAAAAA
Molecule B1 has an Encapsulation rate [1, 9] of 86.0%, a Number-average particle diameter [2, 9] of 85.5 nm and a PdI [2, 9] of 0.094. The ζ-average [2, 9] was 120.1 nm, the ζ-potential [2, 9] was 2.54 mV and the “reduction of serum TTR protein concentration compared to untreated mice” value (TTR gene [3]; 2 mg RNP/kg iv two consecutive days, one week after final injection, CL4H6 LNP) was 81%. For the same molecule, the “serum TTR activity / gene knockout activity” value (TTR gene [3]; FIG. 23, CL4H6 LNP prepared at 4° C., 2.0 mg RNP/kg, 7 days) was “low serum TTR activity, exhibiting sufficient gene knockout activity”, the “KO (%) 1st test” value (TTR gene [3]; [10]) was 47.8% and the “KO (%) 2nd test” value (TTR gene [3]; [10]) was 56.5%. The “TTR-KO activity (ranking among ssODNs)” value (TTR gene [3]; Table 10, CL4H6 LNP, per sgRNA) was “highest TTR-KO activity”, the “in vitro DNA cleavage activity” value (dsDNA from the TTR locus; FIG. 7, TTR-RNP-ssODN, sgTTR-G211, 37° C. 30 min) was “about the same as that of TTR-RNP-ssODN containing ssODN-TTR_3-0%” and the “relative DNA cleavage activity at 37° C.” value (dsDNA from the TTR locus; FIG. 22(A), sgTTR-G211 RNP, activity without ssODN = 100%) was “about the same as that of the RNP containing ssODN-TTR_3-0%”. The “relative DNA cleavage activity at 15° C.” value (dsDNA from the TTR locus; FIG. 22(B), sgTTR-G211 RNP, activity without ssODN = 100%) was “higher than that of RNP containing ssODN-TTR_3-80%, but was clearly lower than that of RNP containing ssODN-TTR_3-0%”, the “KO activity at the DNA level” value (TTR gene [5]) was 27% and the ID %/tissue blood [6] was 7.57 ID %/tissue. It also gave an ID %/tissue kidney [6] of 0.14 ID %/tissue, an ID %/tissue liver [6] of 42.28 ID %/tissue and an ID %/tissue lung [6] of 0.26 ID %/tissue. The ID %/tissue spleen [6] was 3.49 ID %/tissue.

— patent publication US20250205362A1, “LIPID NANOPARTICLES” (NATIONAL UNIVERSITY CORPORATION HOKKAIDO UNIVERSITY, priority 2022, published 2025)
